Measured values as given in US20220119534A1 (DRAGONFLY THERAPEUTICS, published 2022).
Where “and” joins values, the source holds several entries; their conditions need not be identical. Equal entries are not always repeated. Values belong to the binder of their own block, whether it stands above or below them.

B2: human CLEC12A expressed on cells (receptor)
chain: MSEEVTYADLQFQNSSEMEKIPEIGKFGEKAPPAPSHVWRPAALFLTLLCLLLLIGLGVLASMFHVTLKIEMKKMNKLQNISEELQRNISLQLMSNMNISNKIRNLSTTLQTIATKLCRELYSKEQEHKCKPCPRRWIWHKDSCYFLSDDVQTWQESKMACAAQNASLLKINNKNALEFIKSQSRSYDYWLGLSPEEDSTRGMRVDNIINSSAWVIRNAPDLNNMYCGYINRLYVQYYHCTYKKRMICEKMANPVQLGSTYFREA
notes: Transduced isogenic cells or endogenous expression on AML cells; also called RMA-hCLEC12A; Ba/F3-hCLEC12A

Experiments:
[1] = molecular target: T1, Human CLEC12A expressed on cells (Ba/F3-hCLEC12A, PL21, HL60) (human, UniProt Q5QGZ9 1-265); assay: cell-based or functional assay
T1 sequence: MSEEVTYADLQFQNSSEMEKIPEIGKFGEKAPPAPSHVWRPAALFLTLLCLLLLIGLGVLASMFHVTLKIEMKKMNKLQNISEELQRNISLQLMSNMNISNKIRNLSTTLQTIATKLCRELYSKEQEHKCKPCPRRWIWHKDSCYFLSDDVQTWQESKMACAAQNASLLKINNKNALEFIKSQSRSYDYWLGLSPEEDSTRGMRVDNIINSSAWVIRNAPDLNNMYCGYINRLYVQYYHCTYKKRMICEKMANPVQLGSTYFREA

[2] = molecular target: T1, Human CLEC12A expressed on cells …; assay: cell-based or functional assay; remark: listed apart in the source
[3] = molecular target: T1, Human CLEC12A expressed on cells …; assay: cell-based or functional assay; remark: listed apart in the source
AB0300 = molecular target: T2, AB0300 (Homo sapiens (Human), UniProt P0DOX5 2-448 = IgG part; P0DOX7 1-214, L234A; L235A; P329G); assay: flow cytometry on Ba/F3-hCLEC12A cells, fold over background
T2 construct: AB0237 with LALAPG in both Fc chains
Protocol: The cells were then incubated with a fluorophore conjugated anti-human IgG secondary antibody and were analyzed by flow cytometry. The mean fluorescence intensity (MFI) values were normalized to secondary antibody only controls to obtain fold over background (FOB) values.
100,000 cells were seeded per well into a 96-well plate for FACS staining. Cells were washed with PBS. Cells were incubated in a 1:2000 dilution of live/dead dye in PBS for 15 minutes, then washed with FACS buffer. TriNKETs or mAbs were diluted into FACS buffer, and 50 μl containing diluted TriNKET or mAb was added to cells. Cells were incubated on ice for 20 minutes. After the incubation, cells were washed with FACS buffer. Anti-human IgG-Fc secondary antibody was diluted into FACS buffer, and 50 μl was added per well for detection of the bound TriNKETs or mAbs. Cells were incubated for 20 minutes on ice, then washed with FACS buffer. 50 μl of fixation buffer was added to each well, and cells were incubated for 10 minutes at room temperature. Cells were washed with FACS buffer and resuspended in FACS buffer for analysis with BD FACS Celesta SN #H66034400085, or BD FACS Celesta SN #H66034400160. Cells of interest were identified using FSC vs. SSC plot, and an appropriately shaped gate was drawn around the cells. Within the gated cells, doublet cells were removed by viewing FSC-H vs FSC-A plot. Within the single cell population, live cells were gated. Within the live gate, the mean fluorescence intensity (MFI) of each sample and the secondary-only control was calculated. Fold-over-background (FOB) was calculated as the ratio of test article MFI over secondary-only background MFI. Data were fit to a four-parameter non-linear regression curve using GraphPad Prism 7.0.

[4] = molecular target: B2; assay: flow cytometry on PL21 cells, surface-bound molecule after 2 h at 37 C relative to 20 min on ice
Protocol: Human cancer cell lines HL60 and PL21 expressing human CLEC12A were used to assess surface retention of CLEC12A-TriNKETs after incubation with cells. PL21 or HL60 cells in duplicate plates were incubated with TriNKETs or mAbs as indicated. The first plate was moved to 37° C. for two hours, whereas the second plate was incubated on ice for 20 minutes. After the respective incubation times, cells were washed. Surface bound TriNKET or mAb was detected using a fluorescent secondary antibody for flow cytometry.
100,000 cells were seeded per well into duplicate 96-well plates for FACS staining. Cells were washed with FACS buffer. Test articles were diluted to 40 nM and were added to each of the duplicate plates. The first plate was incubated on ice for 2 hours, while the second plate was moved to 37° C. for two hours. After the incubation, cells were washed with PBS and cells were incubated in a 1:2000 dilution of live/dead dye in PBS for 15 minutes, then washed with FACS buffer. Anti-human IgG-Fc secondary antibody was diluted into FACS buffer, and 50 μl was added per well for detection of the bound TriNKETs or mAbs. Cells were incubated for 20 minutes on ice, then washed with FACS buffer. 50 μl of fixation buffer was added to each well, and cells were incubated for 10 minutes at room temperature. […] Surface retention was then calculated as follows:

[5] = molecular target: T3, recombinant human CLEC12A-His (human, UniProt Q5QGZ9 65-265); assay: SPR screening, semi-purified
T3 construct: also called hCLEC12A-His; hCLEC12A
T3 sequence: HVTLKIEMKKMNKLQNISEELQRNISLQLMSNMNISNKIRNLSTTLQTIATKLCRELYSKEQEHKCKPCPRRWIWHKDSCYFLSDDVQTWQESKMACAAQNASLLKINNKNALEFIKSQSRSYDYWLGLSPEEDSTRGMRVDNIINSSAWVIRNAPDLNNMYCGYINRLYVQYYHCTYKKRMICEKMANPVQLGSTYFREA
Protocol: Binding affinities of the 18 semi-purified TriNKETs for hCLEC12A were assessed by SPR in screening.

[6] = molecular target: B2; assay: flow cytometry, hCLEC12A+ Ba/F3
[7] = molecular target: T3, recombinant human CLEC12A-His; assay: SPR, CLEC12A binding
[8] = molecular target: T3, recombinant human CLEC12A-His; assay: SPR 37C, average
[9] = molecular target: B2; assay: flow cytometry (gMFI) on CLEC12A+ PL-21 AML cells
[10] = molecular target: T3, recombinant human CLEC12A-His; assay: SPR 37C
[11] = molecular target: T3, recombinant human CLEC12A-His; assay: flow cytometry of yeast-displayed scFv; x axis PE-A binding of Clec12a-his, y axis FITC-A scFv expression; CLEC12A-His concentration not printed on the sheet

- % Max, ADCP activity of M0 macrophages against PL21 cells [1]: 15%
- EC50, ADCP activity of M0 macrophages against PL21 cells [1]: 0.03 nM
- EC50, rested NK cell lysis of PL21 cells (mean of six donors) [2]: 0.61 nM
- EC50, rested NK cells lysis of HL60 cells (mean of four donors) [3]: 0.3 nM
B1: AB0192 TriNKET (bispecific antibody, human IgG1, kappa)
chain: EVQLVESGGGVVQPGGSLRLSCAASGFTFNAFGMHWVRQAPGKCLEWVAFISSGSTSIYYANTVKGRFTISRDNSKNTLYLQMNSLRAEDTAVYYCARDGYPTGGAMDYWGQGTSVTVSSGGGGSGGGGSGGGGSGGGGSDIQMTQSPSSLSASVGDRVTITCKASQDIYNYLSWFQQKPGKAPKPLIYRANILVSGVPSRFSGSGSGQDYTFTISSLQPEDIATYYCLQFDAFPFTFGCGTKLEIKGSDKTHTCPPCPAPELLGGPSVFLFPPKPKDTLMISRTPEVTCVVVDVSHEDPEVKFNWYVDGVEVHNAKTKPREEQYNSTYRVVSVLTVLHQDWLNGKEYKCKVSNKALPAPIEKTISKAKGQPREPRVYTLPPCRDELTKNQVSLTCLVKGFYPSDIAVEWESNGQPENNYKTTPPVLVSDGSFTLYSKLTVDKSRWQQGNVFSCSVMHEALHNHYTQKSLSLSPG
heavy: EVQLVESGGGLVKPGGSLRLSCAASGFTFSSYSMNWVRQAPGKGLEWVSSISSSSSYIYYADSVKGRFTISRDNAKNSLYLQMNSLRAEDTAVYYCARGAPIGAAAGWFDPWGQGTLVTVSSASTKGPSVFPLAPSSKSTSGGTAALGCLVKDYFPEPVTVSWNSGALTSGVHTFPAVLQSSGLYSLSSVVTVPSSSLGTQTYICNVNHKPSNTKVDKKVEPKSCDKTHTCPPCPAPELLGGPSVFLFPPKPKDTLMISRTPEVTCVVVDVSHEDPEVKFNWYVDGVEVHNAKTKPREEQYNSTYRVVSVLTVLHQDWLNGKEYKCKVSNKALPAPIEKTISKAKGQPREPQVCTLPPSRDELTENQVSLTCLVKGFYPSDIAVEWESNGQPENNYKTTPPVLDSDGSFFLYSWLTVDKSRWQQGNVFSCSVMHEALHNHYTQKSLSLSPG
light: DIQMTQSPSSVSASVGDRVTITCRASQGISSWLAWYQQKPGKAPKLLIYAASSLQSGVPSRFSGSGSGTDFTLTISSLQPEDFATYYCQQGVSFPRTFGGGTKVEIKRTVAAPSVFIFPPSDEQLKSGTASVVCLLNNFYPREAKVQWKVDNALQSGNSQESVTEQDSKDSTYSLSSTLTLSKADYEKHKVYACEVTHQGLSSPVTKSFNRGEC

Binder: B2
- binding result (AB0300): binds

- binding result [4]: binds
B3: AB0147 TriNKET (other)
chain: QLQLQESGPGLVKPSETLSLTCTVSGFSLTNYGLHWIRQPPGKCLEWIGVILSGGWTDYNPSLKSRVTISKDTSKNQFSLKLSSVQAADTAVYYCAKGDYGDALDYWGQGTLVTVSSGGGGSGGGGSGGGGSGGGGSDIQMTQSPSSLSASVGDRVTITCHASQNINFWLSWYQQKPGKAPKLLIYEASNLHTGVPSRFSGSGSGTRFTLTISSLQPEDIATYYCQQSHSYPLTFGCGTKLEIKGSDKTHTCPPCPAPELLGGPSVFLFPPKPKDTLMISRTPEVTCVVVDVSHEDPEVKFNWYVDGVEVHNAKTKPREEQYNSTYRVVSVLTVLHQDWLNGKEYKCKVSNKALPAPIEKTISKAKGQPREPRVYTLPPCRDELTKNQVSLTCLVKGFYPSDIAVEWESNGQPENNYKTTPPVLVSDGSFTLYSKLTVDKSRWQQGNVFSCSVMHEALHNHYTQKSLSLSPG
heavy: EVQLVESGGGLVKPGGSLRLSCAASGFTFSSYSMNWVRQAPGKGLEWVSSISSSSSYIYYADSVKGRFTISRDNAKNSLYLQMNSLRAEDTAVYYCARGAPIGAAAGWFDPWGQGTLVTVSSASTKGPSVFPLAPSSKSTSGGTAALGCLVKDYFPEPVTVSWNSGALTSGVHTFPAVLQSSGLYSLSSVVTVPSSSLGTQTYICNVNHKPSNTKVDKKVEPKSCDKTHTCPPCPAPELLGGPSVFLFPPKPKDTLMISRTPEVTCVVVDVSHEDPEVKFNWYVDGVEVHNAKTKPREEQYNSTYRVVSVLTVLHQDWLNGKEYKCKVSNKALPAPIEKTISKAKGQPREPQVCTLPPSRDELTENQVSLTCLVKGFYPSDIAVEWESNGQPENNYKTTPPVLDSDGSFFLYSWLTVDKSRWQQGNVFSCSVMHEALHNHYTQKSLSLSPG
light: DIQMTQSPSSVSASVGDRVTITCRASQGISSWLAWYQQKPGKAPKLLIYAASSLQSGVPSRFSGSGSGTDFTLTISSLQPEDFATYYCQQGVSFPRTFGGGTKVEIKRTVAAPSVFIFPPSDEQLKSGTASVVCLLNNFYPREAKVQWKVDNALQSGNSQESVTEQDSKDSTYSLSSTLTLSKADYEKHKVYACEVTHQGLSSPVTKSFNRGEC

- Kd [5]: 2.94 nM
- koff [5]: 0.00153 s⁻¹
- kon [5]: 520000 M⁻¹ s⁻¹
- EC50 [6]: 26.1 nM
- Max MFI [6]: 48000 MFI
- Kd [7]: 1.2 nM
- Kd [8]: 1.43 nM
- koff [8]: 0.000594 s⁻¹
- kon [8]: 415000 M⁻¹ s⁻¹
- EC50 [9]: 11.7 nM
- Kd [10]: 1.43 nM and 1.42 nM and 1.44 nM
- koff [10]: 0.000587 s⁻¹ and 0.000589 s⁻¹ and 0.000605 s⁻¹ and 0.000596 s⁻¹
- kon [10]: 411000 M⁻¹ s⁻¹ and 415000 M⁻¹ s⁻¹ and 419000 M⁻¹ s⁻¹ and 416000 M⁻¹ s⁻¹
B4: F3'-1295 TriNKET (other)
chain: QLQLQESGPGLVKPSETLSLTCTVSGFSLTNYGLHWIRQPPGKCLEWIGVIWSGGKTDYNPSLKSRVTISKDTSKNQFSLKLSSVQAADTAVYYCAKYDYDDSLDYWGQGTLVTVSSGGGGSGGGGSGGGGSGGGGSDIQMTQSPSSLSASVGDRVTITCHASQNINFWLSWYQQKPGKIPKLLIYEASNLHTGVPSRFSGSGSGTRFTLTISSLQPEDIATYYCQQSHSYPLTFGCGTKLEIKGSDKTHTCPPCPAPELLGGPSVFLFPPKPKDTLMISRTPEVTCVVVDVSHEDPEVKFNWYVDGVEVHNAKTKPREEQYNSTYRVVSVLTVLHQDWLNGKEYKCKVSNKALPAPIEKTISKAKGQPREPRVYTLPPCRDELTKNQVSLTCLVKGFYPSDIAVEWESNGQPENNYKTTPPVLVSDGSFTLYSKLTVDKSRWQQGNVFSCSVMHEALHNHYTQKSLSLSPG
heavy: EVQLVESGGGLVKPGGSLRLSCAASGFTFSSYSMNWVRQAPGKGLEWVSSISSSSSYIYYADSVKGRFTISRDNAKNSLYLQMNSLRAEDTAVYYCARGAPIGAAAGWFDPWGQGTLVTVSSASTKGPSVFPLAPSSKSTSGGTAALGCLVKDYFPEPVTVSWNSGALTSGVHTFPAVLQSSGLYSLSSVVTVPSSSLGTQTYICNVNHKPSNTKVDKKVEPKSCDKTHTCPPCPAPELLGGPSVFLFPPKPKDTLMISRTPEVTCVVVDVSHEDPEVKFNWYVDGVEVHNAKTKPREEQYNSTYRVVSVLTVLHQDWLNGKEYKCKVSNKALPAPIEKTISKAKGQPREPQVCTLPPSRDELTENQVSLTCLVKGFYPSDIAVEWESNGQPENNYKTTPPVLDSDGSFFLYSWLTVDKSRWQQGNVFSCSVMHEALHNHYTQKSLSLSPG
light: DIQMTQSPSSVSASVGDRVTITCRASQGISSWLAWYQQKPGKAPKLLIYAASSLQSGVPSRFSGSGSGTDFTLTISSLQPEDFATYYCQQGVSFPRTFGGGTKVEIKRTVAAPSVFIFPPSDEQLKSGTASVVCLLNNFYPREAKVQWKVDNALQSGNSQESVTEQDSKDSTYSLSSTLTLSKADYEKHKVYACEVTHQGLSSPVTKSFNRGEC

- binding result [11]: binds
B5: scFv-1602 displayed on yeast (scFv)
scFv: QLQLQESGPGLVKPSETLSLTCTVSGFSLTNYGLHWIRQPPGKCLEWIGVIWSGGKTDYNPSLKSRVTISKDTSKNQFSLKLSSVQAADTAVYYCAKYDYDDSLDYWGQGTLVTVSSGGGGSGGGGSGGGGSGGGGSDIQMTQSPSSLSASVGDRVTITCHASQNINFWLSWYQQKPGKAPKLLIYEASNLHTGVPSRFSGSGSGTRFTLTISSLQPEDIATYYCQQSHSYPLTFGCGTKLEIK
